From patent US20090324622A1 (CELLDEX THERAPEUTICS, published 2009)
Blank lines part the entries; values can stand above or below the binder they belong to.

Assays:
[1] = target: T1, human macrophage mannose receptor (human, UniProt P22897 19-1456); assay: flow cytometry on cultured human DCs
T1 construct: whole, on cells; also called MR; MMR
T1 sequence (looked up): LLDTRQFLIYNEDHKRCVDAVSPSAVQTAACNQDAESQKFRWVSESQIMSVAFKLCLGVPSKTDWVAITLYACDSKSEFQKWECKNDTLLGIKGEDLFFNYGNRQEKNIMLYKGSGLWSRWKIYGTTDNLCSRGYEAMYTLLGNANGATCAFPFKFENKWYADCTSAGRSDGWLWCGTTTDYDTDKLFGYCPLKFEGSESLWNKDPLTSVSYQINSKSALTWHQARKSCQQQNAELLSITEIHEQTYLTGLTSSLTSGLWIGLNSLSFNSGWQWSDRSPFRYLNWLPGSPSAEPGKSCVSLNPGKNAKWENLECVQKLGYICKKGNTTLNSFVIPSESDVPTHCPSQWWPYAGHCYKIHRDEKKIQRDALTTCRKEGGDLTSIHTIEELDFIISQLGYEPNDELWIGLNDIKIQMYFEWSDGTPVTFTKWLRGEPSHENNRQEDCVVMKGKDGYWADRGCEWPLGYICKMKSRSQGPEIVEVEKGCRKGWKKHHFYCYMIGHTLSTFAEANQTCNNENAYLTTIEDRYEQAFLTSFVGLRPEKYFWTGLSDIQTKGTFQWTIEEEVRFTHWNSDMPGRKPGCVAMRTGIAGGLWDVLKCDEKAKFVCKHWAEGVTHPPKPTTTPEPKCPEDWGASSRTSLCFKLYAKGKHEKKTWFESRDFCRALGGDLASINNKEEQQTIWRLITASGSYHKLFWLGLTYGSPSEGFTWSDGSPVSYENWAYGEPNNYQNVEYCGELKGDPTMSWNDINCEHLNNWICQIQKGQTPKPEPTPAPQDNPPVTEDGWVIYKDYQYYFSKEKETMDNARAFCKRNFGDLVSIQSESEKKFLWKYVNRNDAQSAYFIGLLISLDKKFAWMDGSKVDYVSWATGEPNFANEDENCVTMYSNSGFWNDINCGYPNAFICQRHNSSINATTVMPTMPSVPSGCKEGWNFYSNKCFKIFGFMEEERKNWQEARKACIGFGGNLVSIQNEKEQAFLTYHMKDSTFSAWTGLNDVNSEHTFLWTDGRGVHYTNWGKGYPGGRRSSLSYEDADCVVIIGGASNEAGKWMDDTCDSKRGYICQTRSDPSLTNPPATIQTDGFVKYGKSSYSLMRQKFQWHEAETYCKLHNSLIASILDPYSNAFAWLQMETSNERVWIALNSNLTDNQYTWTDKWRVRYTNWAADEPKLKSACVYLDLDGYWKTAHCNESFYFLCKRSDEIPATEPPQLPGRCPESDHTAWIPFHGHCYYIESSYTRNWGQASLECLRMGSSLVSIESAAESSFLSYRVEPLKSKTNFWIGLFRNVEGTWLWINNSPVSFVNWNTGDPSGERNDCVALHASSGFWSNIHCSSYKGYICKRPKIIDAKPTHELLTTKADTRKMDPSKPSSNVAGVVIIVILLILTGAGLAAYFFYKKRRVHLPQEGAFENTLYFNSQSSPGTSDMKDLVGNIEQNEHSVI
Description: Monocyte-derived DCs were exposed either to B11 sfv-βhCG or βhCG-B11 in PBS-BSA buffer for 45 minutes at 37° C. and allowed to mature overnight in the presence of CD40L. Harvested DCs were then washed and stained with mouse anti-βhCG followed by goat anti-hu IgG (Fc)-PE conjugate. Stained cells were analyzed on a flow cytometer (BD-LSR). Approximately, 10,000 events were collected for each sample. Background autofluorescence and isotype matched antibody staining served as controls. Based on the mean fluorescence intensity (MFI) (data not shown), B11 sfv-βhCG binding to MR expressed on DC is similar to that of βhCG-B11.

[2] = target: T1, human macrophage mannose receptor; assay: in situ staining of MR on human tissue cryosections (immunohistochemistry)
Description: Using the anti-MR antibody as a probe, in situ staining of MR on human dermal DCs and macrophages in section of various human tissues was examined. Human tissue cryosections were stained with anti-MR human antibody B11. DCs present in the dermal layer of the skin were clearly labeled (data not shown) with the B11 antibody. It is noted that there was binding to DCs in the dermal layer of skin. […] These studies have been repeated with the βhCG-B11 with identical results.

- binding result [1]: binds
B1: βhCG-B11 construct (whole human anti-mannose receptor antibody B11 with βhCG fused to the CH3 end of the heavy chain) (antibody)
heavy: not shown
light: DIQMTQSPSSLSASVGDRVTITCRASQGISRWLAWYQQKPEKAPKSLIYAASSLQSGVPSRFSGSGSGTDFTLTISGLQPEDFATYYCQQYNSYPRTFGQGTKVEIK
notes: Antibody-antigen fusion expressed in CHO cells; also called B11-βhCG vaccine conjugate; B11-βhCG conjugate

- binding result [2]: binds
B2: human monoclonal antibody B11 (anti-mannose receptor) (antibody, V domains shown)
VH: EVQLVQSGAEVKKPGESLRISCKGSGDSFTTYWIGWVRQMPGKGLEWMGIIYPGDSDTIYSPSFQGQVTISADKSISTAYLQWSSLKASDTAMYYCTRGDRGVDYWGQGTLVTVSS
VL: B1 light
notes: Fully human whole antibody with a kappa light chain; also called B11 mAb; anti-MR B11 HuMAb

- binding result [1]: binds
B3: B11sfv-βhCG construct (single chain B11 antibody, VL and VH, with βhCG fused to the carboxy terminus) (scFv)
scFv: DIQMTQSPSSLSASVGDRVTITCRASQGISRWLAWYQQKPEKAPKSLIYAASSLQSGVPSRFSGSGSGTDFTLTISGLQPEDFATYYCQQYNSYPRTFGQGTKVEIKGGGGSGGGGSGGGGSEVQLVQSGAEVKKPGESLRISCKGSGDSFTTYWIGWVRQMPGKGLEWMGIIYPGDSDTIYSPSFQGQVTISADKSISTAYLQWSSLKASDTAMYYCTRGDRGVDYWGQGTLVTVSSGSTGGGGSSSKEPLRPRCRPINATLAVEKEGCPVCITVNTTICAGYCPTMTRVLQGVLPALPQVVCNYRDVRFESIRLPGCPRGVNPVVSYAVALSCQCALCRRSTTDCGGPKDHPLTCDDPRFQDSSSSKAPPPSLPSPSRLPGPSDTPILPQ
notes: also called B11 scfv-βhCG; pB11sfv-βhCG
